Reference: patent US20210079102A1 (DRAGONFLY THERAPEUTICS, published 2021)
Each block holds one binder with its values, some of them ahead of it.

Assays:
[1] = molecular target: T1, murine NKG2D overexpressed on EL4 cells (EL4-mNKG2D) (mouse, UniProt O54709 1-232); assay: flow cytometry on EL4-mNKG2D cells, 60 ug/mL with four-fold dilutions, goat anti-mouse PE secondary
T1 construct: whole, on cells; also called EL4-mNKG2D cells
T1 sequence (looked up): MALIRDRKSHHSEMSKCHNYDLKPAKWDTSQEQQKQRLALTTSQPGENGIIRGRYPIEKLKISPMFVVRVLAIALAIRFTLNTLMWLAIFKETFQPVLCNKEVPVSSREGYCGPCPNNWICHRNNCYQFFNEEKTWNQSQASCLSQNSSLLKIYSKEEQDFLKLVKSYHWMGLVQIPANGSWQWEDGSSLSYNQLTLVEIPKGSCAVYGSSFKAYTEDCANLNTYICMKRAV
Experimental: (§1) 60 μg/mL of indicated antibodies with four-fold dilutions were added to 2×10⁵ B16F10 tumor cells (FIG. 58A) or EL4-mNKG2D cells (FIG. 58B). Binding was assessed using a goat anti-mouse PE secondary antibody followed by flow cytometric analysis.

[2] = molecular target: T2, Tyrp-1 on B16F10 melanoma cells (UniProt P07147 25-537, limits assumed); assay: flow cytometry on B16F10 tumor cells, 60 ug/mL with four-fold dilutions, goat anti-mouse PE secondary
T2 construct: whole, on cells; also called Tyrp-1-positive B16F10 melanoma cells
Experimental: as §1

[3] = molecular target: T3, CD33 expressed on MV4-11 human AML cells (human, UniProt P20138 18-364); assay: flow cytometry on MV4-11 cells, FOB of MFI
T3 construct: whole, on cells; also called cell-expressed CD33
T3 sequence (P20138 18-364): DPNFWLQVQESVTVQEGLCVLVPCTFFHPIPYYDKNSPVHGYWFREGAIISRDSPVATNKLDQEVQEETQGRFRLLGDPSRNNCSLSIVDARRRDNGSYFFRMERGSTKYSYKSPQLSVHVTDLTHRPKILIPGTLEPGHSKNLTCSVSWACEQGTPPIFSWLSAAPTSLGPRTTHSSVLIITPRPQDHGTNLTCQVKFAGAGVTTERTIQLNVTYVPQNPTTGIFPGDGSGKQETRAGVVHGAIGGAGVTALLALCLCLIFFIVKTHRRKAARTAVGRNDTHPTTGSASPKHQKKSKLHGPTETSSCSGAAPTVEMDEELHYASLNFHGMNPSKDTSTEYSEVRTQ
Experimental: Human AML cell line MV4-11 expressing CD33 was used to assay the binding of TriNKETs to the tumor associated antigen. TriNKETs and the parental anti-CD33 monoclonal antibody were incubated with the cells, and the binding was detected using fluorophore-conjugated anti-human IgG secondary antibodies. Cells were analyzed by flow cytometry, and fold-over-background (FOB) was calculated using the mean fluorescence intensity (MFI) from TriNKETs and the parental monoclonal anti-CD33 antibody normalized to secondary antibody controls.

[4] = molecular target: T4, human NKG2D expressed on EL4 cells (human, UniProt P26718 1-216); assay: flow cytometry on EL4 cells expressing human NKG2D, anti-human IgG secondary, FOB of MFI
T4 construct: whole, on cells; also called extracellular NKG2D expressed on EL4 cells; cell-expressed human NKG2D
T4 sequence (looked up): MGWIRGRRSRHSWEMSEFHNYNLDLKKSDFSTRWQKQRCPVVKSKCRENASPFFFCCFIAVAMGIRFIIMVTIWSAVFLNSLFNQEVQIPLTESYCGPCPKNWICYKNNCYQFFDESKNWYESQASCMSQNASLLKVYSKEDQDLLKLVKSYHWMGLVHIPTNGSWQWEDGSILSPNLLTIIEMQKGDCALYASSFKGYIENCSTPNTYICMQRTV
Experimental: EL4 mouse lymphoma cell lines were engineered to express human NKG2D. […] The binding of the multi-specific binding proteins to NKG2D was detected using fluorophore-conjugated anti-human IgG secondary antibodies. Cells were analyzed by flow cytometry, and fold-over-background (FOB) was calculated using the mean fluorescence intensity (MFI) of NKG2D-expressing cells compared to parental EL4 cells.

- binding result [1]: binds
- binding result [2]: binds
B1: mcFAE-C26.99 TriNKET (bispecific antibody, mouse IgG2c)
light 1: DIQMTQSPSTLSASVGDRVTITCRASQSISSWLAWYQQKPGKAPKLLIYKASSLESGVPSRFSGSGSGTEFTLTISSLQPDDFATYYCQQYGSFPITFGGGTKVEIKRADAAPTVSIFPPSSEQLTSGGASVVCFLNNFYPKDINVKWKIDGSERQNGVLNSWTDQDSKDSTYSMSSTLTLTKDEYERHNSYTCEATHKTSTSPIVKSFNRNEC
heavy 1: QVQLQQWGAGLLKPSETLSLTCAVYGGSFSGYYWSWIRQPPGKGLEWIGEIDHSGSTNYNPSLKSRVTISVDTSKNQFSLKLSSVTAADTAVYYCARARGPWSFDPWGQGTLVTVSSAKTTAPSVYPLAPVCGGTTGSSVTLGCLVKGYFPEPVTLTWNSGSLSSGVHTFPALLQSGLYTLSSSVTVTSNTWPSQTITCNVAHPASSTKVDKKIEPRVPITQNPCPPLKECPPCAAPDLLGGPSVFIFPPKIKDVLMISLSPMVTCVVVDVSEDDPDVQISWFVNNVEVHTAQTQTHREDYNSTLRVVSALPIQHQDWMSGKEFKCKVNNRALPSPIEKTISKPRGPVRAPQVYVLPPPAEEMTKKEFSLTCMIKGFLPAEIAVDWTSNGRTEQNYKNTATVLDSDGSYFMYSRLRVQKSTWERGSLFACSVVHEGLHNHLTTKTISRSLGK
light 2: DIQMSQSPASLSASVGETVTITCRASGNIYNYLAWYQQKQGKSPHLLVYDAKTLADGVPSRFSGSGSGTQYSLKISSLQTEDSGNYYCQHFWSLPFTFGSGTKLEIKRADAAPTVSIFPPSSEQLTSGGASVVCFLNNFYPKDINVKWKIDGSERQNGVLNSWTDQDSKDSTYSMSSTLTLTKDEYERHNSYTCEATHKTSTSPIVKSFNRNEC
heavy 2: EVQLQQSGAELVRPGALVKLSCKTSGFNIKDYFLHWVRQRPDQGLEWIGWINPDNGNTVYDPKFQGTASLTADTSSNTVYLQLSGLTSEDTAVYFCTRRDYTYEKAALDYWGQGASVIVSSAKTTAPSVYPLAPVCGGTTGSSVTLGCLVKGYFPEPVTLTWNSGSLSSGVHTFPALLQSGLYTLSSSVTVTSNTWPSQTITCNVAHPASSTKVDKKIEPRVPITQNPCPPLKECPPCAAPDLLGGPSVFIFPPKIKDVLMISLSPMVTCVVVDVSEDDPDVQISWFVNNVEVHTAQTQTHREDYNSTLRVVSALPIQHQDWMSGKEFKCKVNNRALPSPIEKTISKPRGPVRAPQVYVLPPPAEEMTKKEFSLTCMITGFLPAEIAVDWTSNGRTEQNYKNTATVLDSDGSYLMYSKLTVQKSTWERGSLFACSVVHEGLHNHLTTKTISRSLGK
notes: also called murine cFAE-C26.99 TriNKET; TA99 TriNKET (mcFAE-C26.99)

- binding result [3]: binds
- binding result [4]: binds
B2: CD33-TriNKET-C26 (ADI-28226 and a CD33-binding domain) (bispecific antibody, V domains shown)
VH 1: QVQLQQWGAGLLKPSETLSLTCAVYGGSFSGYYWSWIRQPPGKGLEWIGEIDHSGSTNYNPSLKSRVTISVDTSKNQFSLKLSSVTAADTAVYYCARARGPWSFDPWGQGTLVTVSS
VL 1: DIQMTQSPSTLSASVGDRVTITCRASQSISSWLAWYQQKPGKAPKLLIYKASSLESGVPSRFSGSGSGTEFTLTISSLQPDDFATYYCQQYGSFPITFGGGTKVEIK
VH 2: QVQLVQSGAEVKKPGASVKVSCKASGYTFTDYVVHWVRQAPGQGLEWMGYINPYNDGTKYNEKFKGRVTMTRDTSISTAYMELSRLRSDDTAVYYCARDYRYEVYGMDYWGQGTLVTVSS
VL 2: DIVLTQSPASLAVSPGQRATITCTASSSVNYIHWYQQKPGQPPKLLIYDTSKVASGVPARFSGSGSGTDFTLTINPVEANDTANYYCQQWRSYPLTFGQGTKLEIK
notes: also called C26-TriNKET-CD33

- binding result [3]: binds
B3: parental anti-CD33 monoclonal antibody (antibody, V domains shown)
VH: B2 VH 2
VL: B2 VL 2
notes: also called parental monoclonal anti-CD33 antibody; parental anti-CD33 antibody
